Test system: GST-IRS-1 C-terminus fusion protein containing Ser1101
Sequence (chain, as listed by the source): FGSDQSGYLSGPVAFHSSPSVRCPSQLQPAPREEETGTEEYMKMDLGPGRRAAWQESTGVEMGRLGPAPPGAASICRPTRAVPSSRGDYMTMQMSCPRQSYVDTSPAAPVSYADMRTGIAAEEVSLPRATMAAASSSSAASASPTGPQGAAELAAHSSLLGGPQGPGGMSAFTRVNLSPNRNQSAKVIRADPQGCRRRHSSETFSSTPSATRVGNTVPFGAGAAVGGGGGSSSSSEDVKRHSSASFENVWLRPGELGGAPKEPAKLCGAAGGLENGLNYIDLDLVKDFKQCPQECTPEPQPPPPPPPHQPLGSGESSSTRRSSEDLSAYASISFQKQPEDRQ

| Substance | in vitro kinase reaction, phosphorylation at Ser1101 by Western blot |
| --- | --- |
| Akt kinase, active | The Akt kinase could not effectively phosphorylate IRS-1 at Ser1101, despite the occurrence of this residue within a putative Akt motif |
| protein kinase C theta, active, purified | PKC theta is the only PKC isoform that robustly phosphorylated the GST-IRS-1 fusion protein substrate at Ser1101 |

Source: patent US20040097713
